Measured values as given in the Human Domainome abundance scans (Beltran et al. 2025).
± gives the uncertainty stated by the source.

Test: abundance fitness (aPCA) (normalised: wild type 0, dead -1); higher = more abundant; growth selection in yeast, the domain comes from the species named
Settings: Saccharomyces cerevisiae (strain ATCC 204508 / S288c)

| Substance | abundance fitness |
| --- | --- |
| E3 ubiquitin-protein ligase RSP5 T327H, P39940 | 0.019 ± 0.16 |
| E3 ubiquitin-protein ligase RSP5 T327L, P39940 | -0.049 ± 0.055 |
| E3 ubiquitin-protein ligase RSP5 T327M, P39940 | 0.103 ± 0.077 |
| E3 ubiquitin-protein ligase RSP5 T327N, P39940 | 0.12 ± 0.12 |
| E3 ubiquitin-protein ligase RSP5 T327P, P39940 | -0.258 ± 0.068 |
| E3 ubiquitin-protein ligase RSP5 T327Q, P39940 | -0.112 ± 0.057 |
| E3 ubiquitin-protein ligase RSP5 T327R, P39940 | -0.067 ± 0.044 |
| E3 ubiquitin-protein ligase RSP5 T327S, P39940 | 0.038 ± 0.05 |
| E3 ubiquitin-protein ligase RSP5 T327W, P39940 | -0.17 ± 0.053 |
| E3 ubiquitin-protein ligase RSP5 T327Y, P39940 | -0.639 ± 0.27 |
| E3 ubiquitin-protein ligase RSP5 T342D, P39940 | 0.173 ± 0.076 |
| E3 ubiquitin-protein ligase RSP5 T342E, P39940 | -0.377 ± 0.05 |
| E3 ubiquitin-protein ligase RSP5 T342G, P39940 | -0.255 ± 0.045 |
| E3 ubiquitin-protein ligase RSP5 T342H, P39940 | -0.455 ± 0.3 |
| E3 ubiquitin-protein ligase RSP5 T342K, P39940 | -0.824 ± 0.058 |
| E3 ubiquitin-protein ligase RSP5 T342L, P39940 | -0.074 ± 0.065 |
| E3 ubiquitin-protein ligase RSP5 T342M, P39940 | -0.327 ± 0.17 |
| E3 ubiquitin-protein ligase RSP5 T342N, P39940 | -0.225 ± 0.13 |
| E3 ubiquitin-protein ligase RSP5 T342P, P39940 | -0.556 ± 0.074 |
| E3 ubiquitin-protein ligase RSP5 T342Q, P39940 | -0.226 ± 0.067 |
| E3 ubiquitin-protein ligase RSP5 T342R, P39940 | -0.738 ± 0.044 |
| E3 ubiquitin-protein ligase RSP5 T342V, P39940 | -0.315 ± 0.047 |
| E3 ubiquitin-protein ligase RSP5 T342W, P39940 | -0.865 ± 0.054 |
| E3 ubiquitin-protein ligase RSP5 T354A, P39940 | -0.152 ± 0.052 |
| E3 ubiquitin-protein ligase RSP5 T354C, P39940 | -0.196 ± 0.088 |
| E3 ubiquitin-protein ligase RSP5 T354E, P39940 | -0.163 ± 0.054 |

| Substance | abundance fitness |
| --- | --- |
| E3 ubiquitin-protein ligase RSP5 T354F, P39940 | -0.374 ± 0.093 |
| E3 ubiquitin-protein ligase RSP5 T354G, P39940 | -0.223 ± 0.043 |
| E3 ubiquitin-protein ligase RSP5 T354H, P39940 | 0.187 ± 0.14 |
| E3 ubiquitin-protein ligase RSP5 T354K, P39940 | -0.147 ± 0.082 |
| E3 ubiquitin-protein ligase RSP5 T354L, P39940 | -0.266 ± 0.049 |
| E3 ubiquitin-protein ligase RSP5 T354P, P39940 | -1.07 ± 0.078 |
| E3 ubiquitin-protein ligase RSP5 T354Q, P39940 | -0.165 ± 0.056 |
| E3 ubiquitin-protein ligase RSP5 T354R, P39940 | -0.219 ± 0.044 |
| E3 ubiquitin-protein ligase RSP5 T354S, P39940 | -0.049 ± 0.049 |
| E3 ubiquitin-protein ligase RSP5 T354V, P39940 | -0.445 ± 0.043 |
| E3 ubiquitin-protein ligase RSP5 T354W, P39940 | -0.658 ± 0.065 |
| E3 ubiquitin-protein ligase RSP5 T356A, P39940 | -0.237 ± 0.048 |
| E3 ubiquitin-protein ligase RSP5 T356C, P39940 | 0.032 ± 0.064 |
| E3 ubiquitin-protein ligase RSP5 T356D, P39940 | -0.405 ± 0.08 |
| E3 ubiquitin-protein ligase RSP5 T356E, P39940 | -0.3 ± 0.054 |
| E3 ubiquitin-protein ligase RSP5 T356G, P39940 | -0.465 ± 0.044 |
| E3 ubiquitin-protein ligase RSP5 T356H, P39940 | -0.483 ± 0.23 |
| E3 ubiquitin-protein ligase RSP5 T356I, P39940 | 0.404 ± 0.26 |
| E3 ubiquitin-protein ligase RSP5 T356K, P39940 | -0.225 ± 0.066 |
| E3 ubiquitin-protein ligase RSP5 T356L, P39940 | -0.143 ± 0.047 |
| E3 ubiquitin-protein ligase RSP5 T356M, P39940 | -0.005 ± 0.066 |
| E3 ubiquitin-protein ligase RSP5 T356N, P39940 | -0.285 ± 0.18 |
| E3 ubiquitin-protein ligase RSP5 T356P, P39940 | -0.96 ± 0.069 |
| E3 ubiquitin-protein ligase RSP5 T356Q, P39940 | -0.121 ± 0.05 |
| E3 ubiquitin-protein ligase RSP5 T356R, P39940 | -0.32 ± 0.042 |
| E3 ubiquitin-protein ligase RSP5 T356S, P39940 | 0.034 ± 0.05 |

| Substance | abundance fitness |
| --- | --- |
| E3 ubiquitin-protein ligase RSP5 T356V, P39940 | -0.124 ± 0.052 |
| E3 ubiquitin-protein ligase RSP5 T356Y, P39940 | -0.381 ± 0.12 |
| E3 ubiquitin-protein ligase RSP5 T357A, P39940 | -0.304 ± 0.048 |
| E3 ubiquitin-protein ligase RSP5 T357C, P39940 | -0.142 ± 0.065 |
| E3 ubiquitin-protein ligase RSP5 T357D, P39940 | -0.711 ± 0.06 |
| E3 ubiquitin-protein ligase RSP5 T357E, P39940 | -0.477 ± 0.058 |
| E3 ubiquitin-protein ligase RSP5 T357F, P39940 | -1.11 ± 0.28 |
| E3 ubiquitin-protein ligase RSP5 T357G, P39940 | -0.81 ± 0.047 |
| E3 ubiquitin-protein ligase RSP5 T357H, P39940 | -0.578 ± 0.16 |
| E3 ubiquitin-protein ligase RSP5 T357I, P39940 | -0.735 ± 0.17 |
| E3 ubiquitin-protein ligase RSP5 T357K, P39940 | -0.393 ± 0.069 |
| E3 ubiquitin-protein ligase RSP5 T357L, P39940 | -0.488 ± 0.08 |
| E3 ubiquitin-protein ligase RSP5 T357M, P39940 | -0.33 ± 0.094 |
| E3 ubiquitin-protein ligase RSP5 T357P, P39940 | -0.77 ± 0.073 |
| E3 ubiquitin-protein ligase RSP5 T357Q, P39940 | -0.441 ± 0.07 |
| E3 ubiquitin-protein ligase RSP5 T357S, P39940 | -0.1 ± 0.062 |
| E3 ubiquitin-protein ligase RSP5 T357V, P39940 | -0.247 ± 0.059 |
| E3 ubiquitin-protein ligase RSP5 T357W, P39940 | -0.695 ± 0.061 |
| E3 ubiquitin-protein ligase RSP5 T357Y, P39940 | -0.955 ± 0.31 |
| E3 ubiquitin-protein ligase RSP5 T358D, P39940 | -0.659 ± 0.091 |
| E3 ubiquitin-protein ligase RSP5 T358E, P39940 | -0.761 ± 0.051 |
| E3 ubiquitin-protein ligase RSP5 T358G, P39940 | -0.535 ± 0.044 |
| E3 ubiquitin-protein ligase RSP5 T358H, P39940 | -0.411 ± 0.076 |
| E3 ubiquitin-protein ligase RSP5 T358I, P39940 | -1.07 ± 0.38 |
| E3 ubiquitin-protein ligase RSP5 T358K, P39940 | -0.658 ± 0.12 |
| E3 ubiquitin-protein ligase RSP5 T358L, P39940 | -0.886 ± 0.063 |

| Substance | abundance fitness |
| --- | --- |
| E3 ubiquitin-protein ligase RSP5 T358N, P39940 | -0.767 ± 0.12 |
| E3 ubiquitin-protein ligase RSP5 T358P, P39940 | -0.955 ± 0.067 |
| E3 ubiquitin-protein ligase RSP5 T358Q, P39940 | -0.326 ± 0.057 |
| E3 ubiquitin-protein ligase RSP5 T358R, P39940 | -0.781 ± 0.046 |
| E3 ubiquitin-protein ligase RSP5 T358S, P39940 | -0.028 ± 0.058 |
| E3 ubiquitin-protein ligase RSP5 T358V, P39940 | -0.729 ± 0.071 |
| E3 ubiquitin-protein ligase RSP5 T358W, P39940 | -0.626 ± 0.064 |
| E3 ubiquitin-protein ligase RSP5 T358Y, P39940 | -0.633 ± 0.12 |
| E3 ubiquitin-protein ligase RSP5 V350A, P39940 | -0.275 ± 0.043 |
| E3 ubiquitin-protein ligase RSP5 V350C, P39940 | -0.097 ± 0.066 |
| E3 ubiquitin-protein ligase RSP5 V350D, P39940 | -0.604 ± 0.11 |
| E3 ubiquitin-protein ligase RSP5 V350E, P39940 | -0.346 ± 0.057 |
| E3 ubiquitin-protein ligase RSP5 V350F, P39940 | 0.044 ± 0.13 |
| E3 ubiquitin-protein ligase RSP5 V350G, P39940 | -0.891 ± 0.046 |
| E3 ubiquitin-protein ligase RSP5 V350K, P39940 | -0.537 ± 0.065 |
| E3 ubiquitin-protein ligase RSP5 V350L, P39940 | 0.028 ± 0.048 |
| E3 ubiquitin-protein ligase RSP5 V350M, P39940 | 0.109 ± 0.085 |
| E3 ubiquitin-protein ligase RSP5 V350N, P39940 | -0.49 ± 0.095 |
| E3 ubiquitin-protein ligase RSP5 V350Q, P39940 | -0.295 ± 0.066 |
| E3 ubiquitin-protein ligase RSP5 V350R, P39940 | -0.546 ± 0.042 |
| E3 ubiquitin-protein ligase RSP5 V350S, P39940 | -0.502 ± 0.078 |
| E3 ubiquitin-protein ligase RSP5 V350W, P39940 | -0.359 ± 0.057 |
| E3 ubiquitin-protein ligase RSP5 V350Y, P39940 | -0.136 ± 0.14 |
| E3 ubiquitin-protein ligase RSP5 V360A, P39940 | -0.161 ± 0.046 |
| E3 ubiquitin-protein ligase RSP5 V360C, P39940 | -0.018 ± 0.062 |
